Molecular target: CPTX, biotinylated on a C-terminal Avitag (immobilised in SPR) (UniProt P23435)
Test: SPR

Kd: 4.5 µM
B1: mouse glutamate receptor A4 amino-terminal domain (domain or fragment)
chain: GAFPSSVQIGGLFIRNTDQEYTAFRLAIFLHNTSPNASEAPFNLVPHVDNIETANSFAVTNAFCSQYSRGVFAIFGLYDKRSVHTLTSFCSALHISLITPSFPTEGESQFVLQLRPSLRGALLSLLDHYEWNCFVFLYDTDRGYSILQAIMEKAGQNGWHVSAICVENFNDVSYRQLLEELDRRQEKKFVIDCEIERLQNILEQIVSVGKHVKGYHYIIANLGFKDISLERFIHGGANVTGFQLVDFNTPMVTKLMDRWKKLDQREYPGSETPPKYTSALTYDGVLVMAETFRSLRRQKIDISRRGNAGDCLANPAAPWGQGIDMERTLKQVRIQGLTGNVQFDHYGRRVNYTMDVFELKSTGPRKVGYWNDMDKLVLIQDAPTLGNDTAAIENRTVVVT

Source: paper PMC7116145
